# Measured values: the supplement of paper PMC10266784
# B1: library; numbered along this chain (parent)
# chain: MAAAAAAAAEQQSSNGPVKKSMREKAVERRSVNKEHNSNFKAGYIPIDEDRLHKTGLRGRKGNLAICVIILLFILAVINLIITLVIWAVIRIGPNGCDSMEFHESGLLRFKQVSDMGVIHPLYKSTVGGRRNENLVITGNNQPIVFQQGTTKLSVENNKTSITSDIGMQFFDPRTQNILFSTDYETHEFHLPSGVKSLNVQKASTERITSNATSDLNIKVDGRAIVRGNEGVFIMGKTIEFHMGGNMELKAENSIILNGSVMVSTTRLPSSSSGDQLGSGDWVRYKLCMCADGTLFKVQVTSQNMGCQISDNPCGNTH
# Variants of: B1
# Test: SGCB cell-surface expression functional score (HA stain, bin4 vs bin1, normalised to synonymous) (log10 ratio); higher = more cell-surface SGCB (functional)
# Method: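 Deep mutational scan of full-length human SGCB (YFP-SGCB-HA, NNN codon sublibraries A-F) delivered by lentivirus at low MOI into ADG-HEK293 cells stably expressing SGCA, SGCD and SGCG. YFP-positive cells were stained for surface HA on unpermeabilized cells and FACS-sorted into bins. The functional score is log10(frequency in high bin 4 / frequency in low bin 1), normalised per chunk so that synonymous variants have mean 0 and SD 0.5. Scores are the median over codons and over duplicate biological replicates; scores below -0.5 are called non-functional. Scale: negative means deleterious.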
row,Variant,SGCB cell-surface expression functional score (log10)
1,FAAAAAAAAEQQSSNGPVKKSMREKAVERRSVNKEHNSNFKAGYIPIDEDRLHKTGLRGRKGNLAICVIILLFILAVINLIITLVIWAVIRIGPNGCDSMEFHESGLLRFKQVSDMGVIHPLYKSTVGGRRNENLVITGNNQPIVFQQGTTKLSVENNKTSITSDIGMQFFDPRTQNILFSTDYETHEFHLPSGVKSLNVQKASTERITSNATSDLNIKVDGRAIVRGNEGVFIMGKTIEFHMGGNMELKAENSIILNGSVMVSTTRLPSSSSGDQLGSGDWVRYKLCMCADGTLFKVQVTSQNMGCQISDNPCGNTH [M1F],-0.28
2,DAAAAAAAAEQQSSNGPVKKSMREKAVERRSVNKEHNSNFKAGYIPIDEDRLHKTGLRGRKGNLAICVIILLFILAVINLIITLVIWAVIRIGPNGCDSMEFHESGLLRFKQVSDMGVIHPLYKSTVGGRRNENLVITGNNQPIVFQQGTTKLSVENNKTSITSDIGMQFFDPRTQNILFSTDYETHEFHLPSGVKSLNVQKASTERITSNATSDLNIKVDGRAIVRGNEGVFIMGKTIEFHMGGNMELKAENSIILNGSVMVSTTRLPSSSSGDQLGSGDWVRYKLCMCADGTLFKVQVTSQNMGCQISDNPCGNTH [M1D],0.69
3,LAAAAAAAAEQQSSNGPVKKSMREKAVERRSVNKEHNSNFKAGYIPIDEDRLHKTGLRGRKGNLAICVIILLFILAVINLIITLVIWAVIRIGPNGCDSMEFHESGLLRFKQVSDMGVIHPLYKSTVGGRRNENLVITGNNQPIVFQQGTTKLSVENNKTSITSDIGMQFFDPRTQNILFSTDYETHEFHLPSGVKSLNVQKASTERITSNATSDLNIKVDGRAIVRGNEGVFIMGKTIEFHMGGNMELKAENSIILNGSVMVSTTRLPSSSSGDQLGSGDWVRYKLCMCADGTLFKVQVTSQNMGCQISDNPCGNTH [M1L],-1.26
4,TAAAAAAAAEQQSSNGPVKKSMREKAVERRSVNKEHNSNFKAGYIPIDEDRLHKTGLRGRKGNLAICVIILLFILAVINLIITLVIWAVIRIGPNGCDSMEFHESGLLRFKQVSDMGVIHPLYKSTVGGRRNENLVITGNNQPIVFQQGTTKLSVENNKTSITSDIGMQFFDPRTQNILFSTDYETHEFHLPSGVKSLNVQKASTERITSNATSDLNIKVDGRAIVRGNEGVFIMGKTIEFHMGGNMELKAENSIILNGSVMVSTTRLPSSSSGDQLGSGDWVRYKLCMCADGTLFKVQVTSQNMGCQISDNPCGNTH [M1T],-1.08
5,YAAAAAAAAEQQSSNGPVKKSMREKAVERRSVNKEHNSNFKAGYIPIDEDRLHKTGLRGRKGNLAICVIILLFILAVINLIITLVIWAVIRIGPNGCDSMEFHESGLLRFKQVSDMGVIHPLYKSTVGGRRNENLVITGNNQPIVFQQGTTKLSVENNKTSITSDIGMQFFDPRTQNILFSTDYETHEFHLPSGVKSLNVQKASTERITSNATSDLNIKVDGRAIVRGNEGVFIMGKTIEFHMGGNMELKAENSIILNGSVMVSTTRLPSSSSGDQLGSGDWVRYKLCMCADGTLFKVQVTSQNMGCQISDNPCGNTH [M1Y],-0.02
6,WAAAAAAAAEQQSSNGPVKKSMREKAVERRSVNKEHNSNFKAGYIPIDEDRLHKTGLRGRKGNLAICVIILLFILAVINLIITLVIWAVIRIGPNGCDSMEFHESGLLRFKQVSDMGVIHPLYKSTVGGRRNENLVITGNNQPIVFQQGTTKLSVENNKTSITSDIGMQFFDPRTQNILFSTDYETHEFHLPSGVKSLNVQKASTERITSNATSDLNIKVDGRAIVRGNEGVFIMGKTIEFHMGGNMELKAENSIILNGSVMVSTTRLPSSSSGDQLGSGDWVRYKLCMCADGTLFKVQVTSQNMGCQISDNPCGNTH [M1W],-0.07
7,EAAAAAAAAEQQSSNGPVKKSMREKAVERRSVNKEHNSNFKAGYIPIDEDRLHKTGLRGRKGNLAICVIILLFILAVINLIITLVIWAVIRIGPNGCDSMEFHESGLLRFKQVSDMGVIHPLYKSTVGGRRNENLVITGNNQPIVFQQGTTKLSVENNKTSITSDIGMQFFDPRTQNILFSTDYETHEFHLPSGVKSLNVQKASTERITSNATSDLNIKVDGRAIVRGNEGVFIMGKTIEFHMGGNMELKAENSIILNGSVMVSTTRLPSSSSGDQLGSGDWVRYKLCMCADGTLFKVQVTSQNMGCQISDNPCGNTH [M1E],-0.03
8,HAAAAAAAAEQQSSNGPVKKSMREKAVERRSVNKEHNSNFKAGYIPIDEDRLHKTGLRGRKGNLAICVIILLFILAVINLIITLVIWAVIRIGPNGCDSMEFHESGLLRFKQVSDMGVIHPLYKSTVGGRRNENLVITGNNQPIVFQQGTTKLSVENNKTSITSDIGMQFFDPRTQNILFSTDYETHEFHLPSGVKSLNVQKASTERITSNATSDLNIKVDGRAIVRGNEGVFIMGKTIEFHMGGNMELKAENSIILNGSVMVSTTRLPSSSSGDQLGSGDWVRYKLCMCADGTLFKVQVTSQNMGCQISDNPCGNTH [M1H],0.01
9,GAAAAAAAAEQQSSNGPVKKSMREKAVERRSVNKEHNSNFKAGYIPIDEDRLHKTGLRGRKGNLAICVIILLFILAVINLIITLVIWAVIRIGPNGCDSMEFHESGLLRFKQVSDMGVIHPLYKSTVGGRRNENLVITGNNQPIVFQQGTTKLSVENNKTSITSDIGMQFFDPRTQNILFSTDYETHEFHLPSGVKSLNVQKASTERITSNATSDLNIKVDGRAIVRGNEGVFIMGKTIEFHMGGNMELKAENSIILNGSVMVSTTRLPSSSSGDQLGSGDWVRYKLCMCADGTLFKVQVTSQNMGCQISDNPCGNTH [M1G],0.1
10,PAAAAAAAAEQQSSNGPVKKSMREKAVERRSVNKEHNSNFKAGYIPIDEDRLHKTGLRGRKGNLAICVIILLFILAVINLIITLVIWAVIRIGPNGCDSMEFHESGLLRFKQVSDMGVIHPLYKSTVGGRRNENLVITGNNQPIVFQQGTTKLSVENNKTSITSDIGMQFFDPRTQNILFSTDYETHEFHLPSGVKSLNVQKASTERITSNATSDLNIKVDGRAIVRGNEGVFIMGKTIEFHMGGNMELKAENSIILNGSVMVSTTRLPSSSSGDQLGSGDWVRYKLCMCADGTLFKVQVTSQNMGCQISDNPCGNTH [M1P],0.21
11,QAAAAAAAAEQQSSNGPVKKSMREKAVERRSVNKEHNSNFKAGYIPIDEDRLHKTGLRGRKGNLAICVIILLFILAVINLIITLVIWAVIRIGPNGCDSMEFHESGLLRFKQVSDMGVIHPLYKSTVGGRRNENLVITGNNQPIVFQQGTTKLSVENNKTSITSDIGMQFFDPRTQNILFSTDYETHEFHLPSGVKSLNVQKASTERITSNATSDLNIKVDGRAIVRGNEGVFIMGKTIEFHMGGNMELKAENSIILNGSVMVSTTRLPSSSSGDQLGSGDWVRYKLCMCADGTLFKVQVTSQNMGCQISDNPCGNTH [M1Q],0.35
12,CAAAAAAAAEQQSSNGPVKKSMREKAVERRSVNKEHNSNFKAGYIPIDEDRLHKTGLRGRKGNLAICVIILLFILAVINLIITLVIWAVIRIGPNGCDSMEFHESGLLRFKQVSDMGVIHPLYKSTVGGRRNENLVITGNNQPIVFQQGTTKLSVENNKTSITSDIGMQFFDPRTQNILFSTDYETHEFHLPSGVKSLNVQKASTERITSNATSDLNIKVDGRAIVRGNEGVFIMGKTIEFHMGGNMELKAENSIILNGSVMVSTTRLPSSSSGDQLGSGDWVRYKLCMCADGTLFKVQVTSQNMGCQISDNPCGNTH [M1C],0.25
13,KAAAAAAAAEQQSSNGPVKKSMREKAVERRSVNKEHNSNFKAGYIPIDEDRLHKTGLRGRKGNLAICVIILLFILAVINLIITLVIWAVIRIGPNGCDSMEFHESGLLRFKQVSDMGVIHPLYKSTVGGRRNENLVITGNNQPIVFQQGTTKLSVENNKTSITSDIGMQFFDPRTQNILFSTDYETHEFHLPSGVKSLNVQKASTERITSNATSDLNIKVDGRAIVRGNEGVFIMGKTIEFHMGGNMELKAENSIILNGSVMVSTTRLPSSSSGDQLGSGDWVRYKLCMCADGTLFKVQVTSQNMGCQISDNPCGNTH [M1K],0.14
14,IAAAAAAAAEQQSSNGPVKKSMREKAVERRSVNKEHNSNFKAGYIPIDEDRLHKTGLRGRKGNLAICVIILLFILAVINLIITLVIWAVIRIGPNGCDSMEFHESGLLRFKQVSDMGVIHPLYKSTVGGRRNENLVITGNNQPIVFQQGTTKLSVENNKTSITSDIGMQFFDPRTQNILFSTDYETHEFHLPSGVKSLNVQKASTERITSNATSDLNIKVDGRAIVRGNEGVFIMGKTIEFHMGGNMELKAENSIILNGSVMVSTTRLPSSSSGDQLGSGDWVRYKLCMCADGTLFKVQVTSQNMGCQISDNPCGNTH [M1I],-1.06
15,VAAAAAAAAEQQSSNGPVKKSMREKAVERRSVNKEHNSNFKAGYIPIDEDRLHKTGLRGRKGNLAICVIILLFILAVINLIITLVIWAVIRIGPNGCDSMEFHESGLLRFKQVSDMGVIHPLYKSTVGGRRNENLVITGNNQPIVFQQGTTKLSVENNKTSITSDIGMQFFDPRTQNILFSTDYETHEFHLPSGVKSLNVQKASTERITSNATSDLNIKVDGRAIVRGNEGVFIMGKTIEFHMGGNMELKAENSIILNGSVMVSTTRLPSSSSGDQLGSGDWVRYKLCMCADGTLFKVQVTSQNMGCQISDNPCGNTH [M1V],0.28
16,NAAAAAAAAEQQSSNGPVKKSMREKAVERRSVNKEHNSNFKAGYIPIDEDRLHKTGLRGRKGNLAICVIILLFILAVINLIITLVIWAVIRIGPNGCDSMEFHESGLLRFKQVSDMGVIHPLYKSTVGGRRNENLVITGNNQPIVFQQGTTKLSVENNKTSITSDIGMQFFDPRTQNILFSTDYETHEFHLPSGVKSLNVQKASTERITSNATSDLNIKVDGRAIVRGNEGVFIMGKTIEFHMGGNMELKAENSIILNGSVMVSTTRLPSSSSGDQLGSGDWVRYKLCMCADGTLFKVQVTSQNMGCQISDNPCGNTH [M1N],0.37
17,SAAAAAAAAEQQSSNGPVKKSMREKAVERRSVNKEHNSNFKAGYIPIDEDRLHKTGLRGRKGNLAICVIILLFILAVINLIITLVIWAVIRIGPNGCDSMEFHESGLLRFKQVSDMGVIHPLYKSTVGGRRNENLVITGNNQPIVFQQGTTKLSVENNKTSITSDIGMQFFDPRTQNILFSTDYETHEFHLPSGVKSLNVQKASTERITSNATSDLNIKVDGRAIVRGNEGVFIMGKTIEFHMGGNMELKAENSIILNGSVMVSTTRLPSSSSGDQLGSGDWVRYKLCMCADGTLFKVQVTSQNMGCQISDNPCGNTH [M1S],0.07
18,RAAAAAAAAEQQSSNGPVKKSMREKAVERRSVNKEHNSNFKAGYIPIDEDRLHKTGLRGRKGNLAICVIILLFILAVINLIITLVIWAVIRIGPNGCDSMEFHESGLLRFKQVSDMGVIHPLYKSTVGGRRNENLVITGNNQPIVFQQGTTKLSVENNKTSITSDIGMQFFDPRTQNILFSTDYETHEFHLPSGVKSLNVQKASTERITSNATSDLNIKVDGRAIVRGNEGVFIMGKTIEFHMGGNMELKAENSIILNGSVMVSTTRLPSSSSGDQLGSGDWVRYKLCMCADGTLFKVQVTSQNMGCQISDNPCGNTH [M1R],-0.06
19,AAAAAAAAAEQQSSNGPVKKSMREKAVERRSVNKEHNSNFKAGYIPIDEDRLHKTGLRGRKGNLAICVIILLFILAVINLIITLVIWAVIRIGPNGCDSMEFHESGLLRFKQVSDMGVIHPLYKSTVGGRRNENLVITGNNQPIVFQQGTTKLSVENNKTSITSDIGMQFFDPRTQNILFSTDYETHEFHLPSGVKSLNVQKASTERITSNATSDLNIKVDGRAIVRGNEGVFIMGKTIEFHMGGNMELKAENSIILNGSVMVSTTRLPSSSSGDQLGSGDWVRYKLCMCADGTLFKVQVTSQNMGCQISDNPCGNTH [M1A],0.12
